Broadly, the Kd is the concentration at which binding is half-saturated. A high value points to weaker binding.

Data on two molecules can be found in publication PMC2991499.

What all share (test): EMSA
On the technique in general: A gel shift assay detects complexes by their altered migration in electrophoresis.

Series [1] has as its target T1, RB69 DNA polymerase gp43 PolY567A Exo+ (bacteriophage RB69, UniProt Q38087 1-903, Y567A).
T1 sequence: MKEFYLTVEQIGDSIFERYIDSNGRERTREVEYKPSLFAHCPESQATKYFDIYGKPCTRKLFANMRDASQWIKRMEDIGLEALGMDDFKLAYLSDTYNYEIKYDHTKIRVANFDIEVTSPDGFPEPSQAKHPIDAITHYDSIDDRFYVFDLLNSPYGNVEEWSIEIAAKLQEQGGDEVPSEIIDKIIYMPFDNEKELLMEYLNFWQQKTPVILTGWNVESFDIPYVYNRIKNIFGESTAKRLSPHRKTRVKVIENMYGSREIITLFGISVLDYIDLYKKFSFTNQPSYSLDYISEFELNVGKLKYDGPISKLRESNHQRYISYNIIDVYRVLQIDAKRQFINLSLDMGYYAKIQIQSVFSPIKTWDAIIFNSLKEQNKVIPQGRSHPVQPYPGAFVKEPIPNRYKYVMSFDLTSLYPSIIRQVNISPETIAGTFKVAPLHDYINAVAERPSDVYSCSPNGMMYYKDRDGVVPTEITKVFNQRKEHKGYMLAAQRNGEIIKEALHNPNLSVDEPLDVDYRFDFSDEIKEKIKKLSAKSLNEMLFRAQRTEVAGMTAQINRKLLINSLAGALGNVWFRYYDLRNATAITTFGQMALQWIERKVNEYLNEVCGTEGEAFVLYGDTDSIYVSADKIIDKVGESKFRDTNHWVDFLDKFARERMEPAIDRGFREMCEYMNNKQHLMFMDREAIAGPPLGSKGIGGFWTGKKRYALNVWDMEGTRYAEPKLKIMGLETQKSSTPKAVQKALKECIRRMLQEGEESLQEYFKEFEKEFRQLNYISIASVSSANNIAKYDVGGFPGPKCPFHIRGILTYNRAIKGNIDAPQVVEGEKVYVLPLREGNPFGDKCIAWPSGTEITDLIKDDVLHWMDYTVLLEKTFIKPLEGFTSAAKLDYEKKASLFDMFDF

Series [2] addresses T2, RB69 DNA polymerase gp43 PolS565G/Y567A Exo+ (bacteriophage RB69, UniProt Q38087 1-903, S565G;Y567A).
T2 sequence: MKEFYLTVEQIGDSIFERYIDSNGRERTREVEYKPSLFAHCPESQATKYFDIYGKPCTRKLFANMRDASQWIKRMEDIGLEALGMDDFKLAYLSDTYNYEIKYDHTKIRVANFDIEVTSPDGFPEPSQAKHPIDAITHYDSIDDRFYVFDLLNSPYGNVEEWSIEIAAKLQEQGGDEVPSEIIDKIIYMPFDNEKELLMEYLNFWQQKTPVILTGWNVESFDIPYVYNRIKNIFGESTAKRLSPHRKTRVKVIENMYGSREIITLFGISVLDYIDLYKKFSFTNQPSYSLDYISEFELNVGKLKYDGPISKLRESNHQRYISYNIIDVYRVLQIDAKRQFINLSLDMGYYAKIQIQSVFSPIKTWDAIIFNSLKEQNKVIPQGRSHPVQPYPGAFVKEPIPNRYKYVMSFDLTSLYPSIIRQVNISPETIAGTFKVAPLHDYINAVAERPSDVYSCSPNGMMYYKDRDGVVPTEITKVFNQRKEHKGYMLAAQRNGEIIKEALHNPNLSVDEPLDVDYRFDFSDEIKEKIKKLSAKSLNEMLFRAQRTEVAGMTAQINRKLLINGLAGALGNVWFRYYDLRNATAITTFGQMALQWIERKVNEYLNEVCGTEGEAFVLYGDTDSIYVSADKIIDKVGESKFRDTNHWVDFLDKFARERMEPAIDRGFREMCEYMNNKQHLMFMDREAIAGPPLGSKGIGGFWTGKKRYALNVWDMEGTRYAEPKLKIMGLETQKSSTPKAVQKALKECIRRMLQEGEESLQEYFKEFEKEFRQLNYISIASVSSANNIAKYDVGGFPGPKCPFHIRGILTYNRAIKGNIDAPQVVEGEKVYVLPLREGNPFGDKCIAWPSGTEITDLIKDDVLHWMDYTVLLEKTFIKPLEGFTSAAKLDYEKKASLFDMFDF

In series [3] the target is T3, RB69 DNA polymerase gp43 PolS565G Exo+ (bacteriophage RB69, UniProt Q38087 1-903, S565G).
T3 sequence: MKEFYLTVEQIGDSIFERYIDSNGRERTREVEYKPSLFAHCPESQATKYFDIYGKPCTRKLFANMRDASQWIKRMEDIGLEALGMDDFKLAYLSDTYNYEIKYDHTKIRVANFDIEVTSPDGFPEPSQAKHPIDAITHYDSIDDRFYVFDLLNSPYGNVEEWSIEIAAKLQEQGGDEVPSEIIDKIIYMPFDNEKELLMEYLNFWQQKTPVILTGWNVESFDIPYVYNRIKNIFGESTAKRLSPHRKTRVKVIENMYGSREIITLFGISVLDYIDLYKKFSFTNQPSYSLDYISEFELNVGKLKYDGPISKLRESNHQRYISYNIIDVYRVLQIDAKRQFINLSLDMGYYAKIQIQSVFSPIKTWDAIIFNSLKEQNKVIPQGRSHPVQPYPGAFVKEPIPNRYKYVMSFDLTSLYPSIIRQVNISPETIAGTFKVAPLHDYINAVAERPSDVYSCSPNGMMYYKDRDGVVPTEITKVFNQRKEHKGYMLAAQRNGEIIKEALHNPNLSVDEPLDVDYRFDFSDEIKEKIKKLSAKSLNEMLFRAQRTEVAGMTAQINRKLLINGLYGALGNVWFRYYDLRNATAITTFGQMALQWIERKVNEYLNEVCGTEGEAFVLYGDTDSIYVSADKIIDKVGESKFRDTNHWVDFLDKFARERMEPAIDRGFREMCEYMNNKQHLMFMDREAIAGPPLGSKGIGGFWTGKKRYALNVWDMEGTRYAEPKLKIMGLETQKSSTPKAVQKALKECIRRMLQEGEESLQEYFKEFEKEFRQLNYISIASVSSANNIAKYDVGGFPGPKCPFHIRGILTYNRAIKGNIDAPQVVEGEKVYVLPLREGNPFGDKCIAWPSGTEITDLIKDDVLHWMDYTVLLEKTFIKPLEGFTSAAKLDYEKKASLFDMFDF

Series [4] has as its target T4, RB69 DNA polymerase gp43 Pol+ Exo+ (wild type) (bacteriophage RB69, UniProt Q38087 1-903).
T4 sequence: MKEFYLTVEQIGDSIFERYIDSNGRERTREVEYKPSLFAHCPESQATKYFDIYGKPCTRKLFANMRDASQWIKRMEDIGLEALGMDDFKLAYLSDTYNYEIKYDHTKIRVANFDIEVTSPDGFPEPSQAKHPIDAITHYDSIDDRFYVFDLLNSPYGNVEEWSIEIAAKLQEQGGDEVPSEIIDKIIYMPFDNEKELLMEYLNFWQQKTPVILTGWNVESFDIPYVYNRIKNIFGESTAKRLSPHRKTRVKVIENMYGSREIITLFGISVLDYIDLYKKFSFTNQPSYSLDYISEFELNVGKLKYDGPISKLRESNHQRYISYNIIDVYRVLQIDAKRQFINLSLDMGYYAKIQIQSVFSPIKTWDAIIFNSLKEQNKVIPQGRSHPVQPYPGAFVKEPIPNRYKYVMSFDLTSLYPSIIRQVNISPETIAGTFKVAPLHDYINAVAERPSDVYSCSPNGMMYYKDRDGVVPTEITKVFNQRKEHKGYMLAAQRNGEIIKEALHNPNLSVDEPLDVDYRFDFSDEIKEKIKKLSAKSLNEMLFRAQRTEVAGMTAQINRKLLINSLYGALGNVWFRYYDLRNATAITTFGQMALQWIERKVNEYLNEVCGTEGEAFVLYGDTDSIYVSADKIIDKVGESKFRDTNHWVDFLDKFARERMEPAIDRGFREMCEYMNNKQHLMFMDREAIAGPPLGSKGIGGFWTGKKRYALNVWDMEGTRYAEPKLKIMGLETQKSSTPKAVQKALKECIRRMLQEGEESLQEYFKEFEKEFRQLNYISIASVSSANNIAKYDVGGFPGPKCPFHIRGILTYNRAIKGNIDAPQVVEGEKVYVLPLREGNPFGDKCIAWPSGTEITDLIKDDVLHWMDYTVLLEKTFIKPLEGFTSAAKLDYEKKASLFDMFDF

B1: normal dsDNA primer/template 20/35-mer (dsDNA)
DNA 1: TTTGATGTATTATCAATTGT
DNA 2: TGCCTTCGTAATCTTACAATTGATAATACATCAAA
On to B1, for which the Kd in series [1] was found to be 13.2 ± 1.4 nM; in series [2], 29.9 ± 1.9 nM; in series [3], 38.9 ± 3.4 nM; in series [4], 6.9 ± 2.1 nM.

B2: mismatched dsDNA primer/template 20/30-mer, terminal T·G (dsDNA)
DNA 1: ATGTGCTGCAAGGCGATTAG
DNA 2: GTTACCCAACTTAATCGCCTTGCAGCACAT
Turning to B2, the Kd came to 25.7 ± 3.2 nM in series [1], 79.9 ± 4.8 nM in series [2], 132 ± 5.7 nM in series [3] and 38.2 ± 4.3 nM in series [4].
